This is an account of results in US20140011746A1 (WISCONSIN ALUMNI RESEARCH FOUNDATION, published 2014).

Experiment [1] has as its target T1, α3β1 integrin (human, UniProt P26006 33-1051; P05556 21-798).
T1 construct: whole, on cells; Endogenous receptor in cell lysates
Kind of experiment: immunoprecipitation of native mSdc4 or mSdc4ΔC2 (FIG. 6D).

The target of experiment [2] is T2, EGFR (human, UniProt P00533 25-1210).
T2 construct: whole, on cells; Endogenous protein in cell lysates
Kind of experiment: co-immunoprecipitation from cell lysates.

Experiment [3] deals with T3, HER2 (human, UniProt P04626 23-1255).
T3 construct: whole, on cells; Endogenous protein in cell lysates; also called ErbB2; HER2/Neu
Put plainly: co-immunoprecipitation from mammary cell lysates.

T1 sequence (P26006 33-1051, chain 1 of 2): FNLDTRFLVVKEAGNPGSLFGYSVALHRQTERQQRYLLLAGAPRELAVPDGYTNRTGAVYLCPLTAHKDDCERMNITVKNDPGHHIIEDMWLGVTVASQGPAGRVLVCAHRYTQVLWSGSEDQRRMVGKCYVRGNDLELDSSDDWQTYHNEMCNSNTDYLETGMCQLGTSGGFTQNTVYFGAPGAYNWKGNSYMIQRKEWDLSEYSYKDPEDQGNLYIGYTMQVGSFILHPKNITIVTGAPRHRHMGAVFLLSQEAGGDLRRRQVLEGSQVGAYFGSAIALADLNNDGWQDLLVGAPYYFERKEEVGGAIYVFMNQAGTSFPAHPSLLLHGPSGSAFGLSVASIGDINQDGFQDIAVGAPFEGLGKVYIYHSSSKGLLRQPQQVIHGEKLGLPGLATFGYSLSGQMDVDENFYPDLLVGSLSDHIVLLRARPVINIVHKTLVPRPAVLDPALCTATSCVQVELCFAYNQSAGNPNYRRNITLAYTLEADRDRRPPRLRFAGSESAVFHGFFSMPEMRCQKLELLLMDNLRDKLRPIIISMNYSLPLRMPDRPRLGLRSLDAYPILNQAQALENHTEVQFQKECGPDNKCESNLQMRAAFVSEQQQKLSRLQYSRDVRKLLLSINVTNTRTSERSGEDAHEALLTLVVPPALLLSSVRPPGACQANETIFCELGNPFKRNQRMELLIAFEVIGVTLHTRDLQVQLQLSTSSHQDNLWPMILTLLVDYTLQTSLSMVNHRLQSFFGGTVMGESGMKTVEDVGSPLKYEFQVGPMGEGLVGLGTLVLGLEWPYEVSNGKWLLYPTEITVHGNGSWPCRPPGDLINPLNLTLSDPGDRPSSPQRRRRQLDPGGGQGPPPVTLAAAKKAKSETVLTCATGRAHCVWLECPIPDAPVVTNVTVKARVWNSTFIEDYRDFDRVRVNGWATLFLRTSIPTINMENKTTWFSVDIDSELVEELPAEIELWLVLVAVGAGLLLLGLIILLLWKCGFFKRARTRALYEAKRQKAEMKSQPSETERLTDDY
T1 sequence (P05556 21-798, chain 2 of 2): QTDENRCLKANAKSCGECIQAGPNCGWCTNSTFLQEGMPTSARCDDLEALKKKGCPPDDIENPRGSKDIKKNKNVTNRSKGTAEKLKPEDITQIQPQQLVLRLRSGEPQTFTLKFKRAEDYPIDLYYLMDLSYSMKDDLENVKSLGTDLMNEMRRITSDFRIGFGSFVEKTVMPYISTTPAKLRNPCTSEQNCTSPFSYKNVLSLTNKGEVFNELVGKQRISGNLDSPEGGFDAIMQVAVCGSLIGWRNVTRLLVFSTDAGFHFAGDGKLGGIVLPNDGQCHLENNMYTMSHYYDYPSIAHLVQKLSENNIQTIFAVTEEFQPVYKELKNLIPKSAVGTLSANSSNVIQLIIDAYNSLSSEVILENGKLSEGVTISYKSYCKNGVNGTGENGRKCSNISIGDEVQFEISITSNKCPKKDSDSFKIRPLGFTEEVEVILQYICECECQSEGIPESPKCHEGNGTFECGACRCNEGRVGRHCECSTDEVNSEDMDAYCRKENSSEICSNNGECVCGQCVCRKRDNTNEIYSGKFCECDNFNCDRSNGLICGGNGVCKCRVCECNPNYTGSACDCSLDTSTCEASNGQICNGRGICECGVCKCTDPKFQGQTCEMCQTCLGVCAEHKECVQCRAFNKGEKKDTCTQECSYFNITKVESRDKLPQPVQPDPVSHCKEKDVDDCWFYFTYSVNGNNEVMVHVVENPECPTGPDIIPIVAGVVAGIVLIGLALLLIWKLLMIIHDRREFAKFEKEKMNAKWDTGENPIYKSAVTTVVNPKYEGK

B1: mSdc4ΔC2 mutant (receptor, mouse, UniProt O35988 24-194, looked up)
chain: ESIRETEVIDPQDLLEGRYFSGALPDDEDAGGSDDFELSGSGDLDDTEEPRPFPEVIEPLVPLDNHIPENAQPGIRVPSEPKELEENEVIPKRAPSDVGDDMSNKVSMSSTAQGSNIFERTEVLAALIVGGVVGILFAVFLILLLVYRMKKKDEGSYDLGKKPIYKKAPTN
notes: whole, on cells; Lacks the last four residues, EFYA; also called mSdc4 C2
With B1, the binding result in experiment [1] is “binds”.

B2: human syndecan-1 (receptor)
chain: QIVATNLPPEDQDGSGDDSDNFSGSGAGALQDITLSQQTPSTWKDTQLLTAIPTSPEPTGLEATAASTSTLPAGEGPKEGEAVVLPEVEPGLTAREQEATPRPRETTQLPTTHQASTTTATTAQEPATSHPHRDMQPGHHETSTPAGPSQADLHTPHTEDGGPSATERAAEDGASSQLPAAEGSGEQDFTFETSGENTAVVAVEPDRRNQSPVDQGATGASQGLLDRKEVLGGVIAGGLVGLIFAVCLVGFMLYRMKKKDEGSYSLEEPKQANGGAYQKPTKQEEFYA
notes: Endogenous Sdc1 of human cells, immunoprecipitated from cell lysates; also called hSdc1; Sdc1
Regarding B2, the binding result in experiment [2] is reported as “no binding”.

B3: human syndecan-4 (receptor, UniProt P31431 19-198, looked up)
chain: ESIRETEVIDPQDLLEGRYFSGALPDDEDVVGPGQESDDFELSGSGDLDDLEDSMIGPEVVHPLVPLDNHIPERAGSGSQVPTEPKKLEENEVIPKRISPVEESEDVSNKVSMSSTVQGSNIFERTEVLAALIVGGIVGILFAVFLILLLMYRMKKKDEGSYDLGKKPIYKKAPTNEFYA
notes: whole, on cells; Endogenous protein, immunoprecipitated as a control; also called Sdc4; human Sdc4
In the case of B3, the binding result in experiment [3] is reported as “no binding”.
